Results as given in US20040037843A1.
Where two headings read alike, the source gives them in different places. Values belong to the binder of their own block, whether it stands above or below them. Ends that are not written are not given here.

Tests used:
HLA-A*0201 (human) [1] = conditions: remark: other sources report otherwise
HLA-A*0206 (human) [2] = test: inhibition of 125I probe peptide binding to purified HLA; conditions: remark: other sources report otherwise
HLA-A*0203 (human) [3] = conditions: remark: other sources report otherwise
HLA-A*0201 (human) [4] = conditions: remark: other sources report otherwise; remark: listed apart in the source
[5] = molecular target: HLA-A*2401 (purified HLA class I molecule) (human); test: competition with 125I-labelled standard peptide for purified HLA, gel filtration
HLA-A*2401 (human) = test: competition with 125I-labelled probe peptide for purified HLA, gel filtration
HLA-A*0201 (human) [6] = test: inhibition of 125I probe peptide binding to purified HLA; conditions: remark: other sources report otherwise
HLA-A*0202 (human) [7] = test: as above; conditions: remark: other sources report otherwise
HLA-A*0203 (human) [8] = test: as above; conditions: remark: other sources report otherwise
HLA-A*0202 (human) [9] = test: competition with 125I-labelled standard peptide for purified HLA, gel filtration; conditions: remark: other sources report otherwise
HLA-A*0203 (human) [10] = test: as above; conditions: remark: other sources report otherwise
HLA-A*0206 (human) [11] = test: as above; conditions: remark: other sources report otherwise
[12] = scale: ratio to standard peptide

Binder: IMYSAHDTTV [PAP.284]
IC50 (HLA-A*0201 (human) [1]): < 200 nM

Binder: VLAKELKFV [PAP.30]
IC50 (HLA-A*0201 (human) [1]): < 200 nM

Binder: RFAELVGPVI [PAP position 355, 10 amino acids]
relative binding ratio (IC50 of standard peptide / IC50 of test peptide) [5]: 0.0037

Binder: CYASGWGSI [Kallikrein position 152, 9 amino acids]
relative binding ratio (IC50 of standard peptide / IC50 of test peptide) (HLA-A*2401 (human)): 0.17

Binder: PYASCHLTEL [PAP position 309, 10 amino acids]
relative binding ratio (IC50 of standard peptide / IC50 of test peptide) [5]: 0.024

Binder: AMTNLAALF [PAP position 116, 9 amino acids]
relative binding ratio (IC50 of standard peptide / IC50 of test peptide) (HLA-A*2401 (human)): 0.015

Binder: LMLLRLSEPA [PSA.117]
IC50 (HLA-A*0201 (human) [1]): < 200 nM

Binder: PYKDFIATL [PAP position 183, 9 amino acids]
relative binding ratio (IC50 of standard peptide / IC50 of test peptide) [5]: 0.11

Binder: GWGSIEPEEF [Kallikrein position 156, 10 amino acids]
relative binding ratio (IC50 of standard peptide / IC50 of test peptide) (HLA-A*2401 (human)): 0.0001

Binder: DLPTQEPALGT [PSA position 136, 11 amino acids]
relative binding ratio (HLA-A*0201 (human) [6]): 0.0041 | relative binding ratio (HLA-A*0202 (human) [7]): 0.018 | relative binding ratio (HLA-A*0203 (human) [8]): 0.01 | relative binding ratio (HLA-A*0206 (human) [2]): 0.0001

Binder: FLRPRSLQCV [HuK2.165]
IC50 (HLA-A*0201 (human) [1]): < 200 nM

Binder: CARAYSEKVT [Kallikrein position 184, 10 amino acids]
relative binding ratio (HLA-A*0201 (human) [6]): 0.0074 | relative binding ratio (HLA-A*0203 (human) [8]): 0.02 | relative binding ratio (HLA-A*0206 (human) [2]): 0.003

Binder: ILLWQPIPV [PAP.135]
IC50 (HLA-A*0201 (human) [1]): < 200 nM

Binder: RFQELESETL [PAP position 163, 10 amino acids]
relative binding ratio (IC50 of standard peptide / IC50 of test peptide) [5]: 0.0001

Binder: LTPKKLQCVDL [PSA peptide, position 162, 11 amino acids]
relative binding ratio (HLA-A*0202 (human) [9]; [12]): 0.0087 | relative binding ratio (HLA-A*0203 (human) [10]; [12]): 0.0074

Binder: FLNESYKHEQV [PAP.92]
IC50 (HLA-A*0201 (human) [1]): < 200 nM

Binder: GAAPLILSRIV [PSA position 12, 11 amino acids]
relative binding ratio (HLA-A*0202 (human) [9]): 0.022 | relative binding ratio (HLA-A*0203 (human) [10]): 0.011 | relative binding ratio (HLA-A*0206 (human) [11]): 0.0006

Binder: GFLFLLFFW [PAP position 17, 9 amino acids]
relative binding ratio (IC50 of standard peptide / IC50 of test peptide) (HLA-A*2401 (human)): 0.0016

Binder: SLHLLSNDMCA [HuK2.175]
IC50 (HLA-A*0201 (human) [1]): < 200 nM

Binder: VFRHGDRSPI [PAP position 41, 10 amino acids]
relative binding ratio (IC50 of standard peptide / IC50 of test peptide) [5]: 0.0005

Binder: CAGRWTGGKST [PSA position 194, 11 amino acids]
relative binding ratio (HLA-A*0201 (human) [6]): 0.0013 | relative binding ratio (HLA-A*0202 (human) [7]): 0.037 | relative binding ratio (HLA-A*0203 (human) [8]): 0.025 | relative binding ratio (HLA-A*0206 (human) [2]): 0.0002

Binder: DFIATLGKL [PAP position 186, 9 amino acids]
relative binding ratio (IC50 of standard peptide / IC50 of test peptide) (HLA-A*2401 (human)): 0.0002

Binder: SYKHEQVYI [PAP position 96, 9 amino acids]
relative binding ratio (IC50 of standard peptide / IC50 of test peptide) [5]: 0.26

Binder: SWPQGFGQL [PAP position 62, 9 amino acids]
relative binding ratio (IC50 of standard peptide / IC50 of test peptide) [5]: 0.0013

Binder: CALPERPSLYT [PSA position 230, 11 amino acids]
relative binding ratio (HLA-A*0201 (human) [6]): 0.0008 | relative binding ratio (HLA-A*0203 (human) [8]): 0.0071 | relative binding ratio (HLA-A*0206 (human) [2]): 0.0016

Binder: FFWLDRSVL [PAP position 23, 9 amino acids]
relative binding ratio (IC50 of standard peptide / IC50 of test peptide) (HLA-A*2401 (human)): 0.0017

Binder: IWSKVYDPL [PAP position 205, 9 amino acids]
relative binding ratio (IC50 of standard peptide / IC50 of test peptide) (HLA-A*2401 (human)): 0.0024

Binder: DLPTQEPAL [PSA position 136, 9 amino acids]
relative binding ratio (HLA-A*0201 (human) [6]): 0.0003

Binder: ALDVYNGLL [PAP.299]
IC50 (HLA-A*0201 (human) [1]): < 200 nM

Binder: LLFFWLDRSV [PAP.21]
IC50 (HLA-A*0201 (human) [1]): < 200 nM

Binder: EYIRKRYRKF [PAP position 83, 10 amino acids]
relative binding ratio (IC50 of standard peptide / IC50 of test peptide) (HLA-A*2401 (human)): 0.0067

Binder: GFLFLLFFWL [PAP position 17, 10 amino acids]
relative binding ratio (IC50 of standard peptide / IC50 of test peptide) (HLA-A*2401 (human)): 0.0007

Binder: HYRKWIKDTI [Kallikrein position 248, 10 amino acids]
relative binding ratio (IC50 of standard peptide / IC50 of test peptide) (HLA-A*2401 (human)): 0.055

Results, then the binder that gave them:

IC50 (HLA-A*0201 (human) [1]): < 200 nM
Binder: QLMFLERAFI [PSM.667]

IC50 (HLA-A*0206 (human) [2]): 95 nM
Binder: LLLARAASV [Peptide 60.0201 … (PAP.6.V9)]

IC50 (HLA-A*0201 (human) [1]): < 200 nM
Binder: GMPEGDLVYV [PSM.168]

IC50 (HLA-A*0203 (human) [3]): 250 nM
Binder: HLLSNDMCARA (not fully specified) [peptide 1419.15 (HuK2.177)]

IC50 (HLA-A*0201 (human) [1]): < 200 nM
Binder: ALFDIESKV [PSM.711]

IC50 (HLA-A*0201 (human) [1]): < 200 nM
Binder: RMMNDQLMFL [PSM.662]

IC50 (HLA-A*0201 (human) [4]): 24 nM
Binder: ALSVGCTGV [peptide 1418.15 (HuK2.9.V9)]

IC50 (HLA-A*0201 (human) [6]): 6.9 nM | IC50 (HLA-A*0202 (human) [7]): 8.1 nM
Binder: VLAKELKFVTL [Peptide 63.0142 … (PAP.30)]

IC50 (HLA-A*0201 (human) [6]): 208 nM
Binder: LLLARAASL [Peptide 20.0044 … (PAP.6)]

IC50 (HLA-A*0203 (human) [3]): 4.2 nM
Binder: FLRPRSLQCV [peptide 1419.07 (HuK2.165)]

IC50 (HLA-A*0201 (human) [1]): < 200 nM
Binder: ALGTTCYA [PSA.143]

IC50 (HLA-A*0202 (human) [7]): 0.6 nM
Binder: LLFFWLDRSV [Peptide 1097.09 … (PAP.21)]

IC50 (HLA-A*0202 (human) [7]): 10 nM | IC50 (HLA-A*0206 (human) [2]): 378 nM
Binder: LLARAASLSV [Peptide 63.0031 … (PAP.7.V10)]

IC50 (HLA-A*0201 (human) [1]): < 200 nM
Binder: LLQERGVAYI [PSM.441]

IC50 (HLA-A*0201 (human) [1]): < 200 nM
Binder: GLPSIPVHPI [PSM.288]

IC50 (HLA-A*0201 (human) [1]): < 200 nM
Binder: FLTPKKLQCV [PSA.161]

IC50 (HLA-A*0201 (human) [4]): 50 nM
Binder: DLMLLRLSEPV [peptide 63.0109 (HuK2.120.V11)]

IC50 (HLA-A*0201 (human) [6]): 40 nM
Binder: SLSLGFLFLL [Peptide 1419.51 … (PAP.13)]

IC50 (HLA-A*0201 (human) [1]): < 200 nM
Binder: VLAGGFFLL [PSM.27]

IC50 (HLA-A*0202 (human) [7]): 307 nM | IC50 (HLA-A*0203 (human) [8]): 625 nM
Binder: FLFLLFFWV [Peptide 60.0203 … (PAP.18.V9)]

IC50 (HLA-A*0201 (human) [1]): < 200 nM
Binder: KLQCVDLHV [PSA.166]

IC50 (HLA-A*0206 (human) [2]): 381 nM
Binder: FLNESYKHEQV [Peptide 1419.55 … (PAP.92)]

IC50 (HLA-A*0201 (human) [1]): < 200 nM
Binder: MLLRLSEPA [PSA.118 (9-mer …)]

IC50 (HLA-A*0206 (human) [2]): 822 nM
Binder: LLFFWLDRSVL [Peptide 63.0139 … (PAP.21)]

IC50 (HLA-A*0201 (human) [1]): < 200 nM
Binder: LVLAGGFFL [PSM.26]

IC50 (HLA-A*0201 (human) [6]): 500 nM | IC50 (HLA-A*0202 (human) [7]): 5.2 nM | IC50 (HLA-A*0206 (human) [2]): 9250 nM
Binder: LLARAASLSL [Peptide 20.0203 … (PAP.7)]

IC50 (HLA-A*0201 (human) [6]): 227 nM | IC50 (HLA-A*0206 (human) [2]): 95 nM
Binder: AASLSLGFLFL [Peptide 63.0137 … (PAP.11)]
